Data reported in publication PMC5563082 (2017).
Where two headings read alike, the source gives them in different places. Blank lines part the entries; values can stand above or below the binder they belong to.

Legend:
Assay in all cases: SPR
[1] = target: T1, human NL1(–A–B)_(ECTO), biotinylated and immobilised for SPR (human, biotin on the Avitag (in vivo biotinylation by BirA))
T1 chain: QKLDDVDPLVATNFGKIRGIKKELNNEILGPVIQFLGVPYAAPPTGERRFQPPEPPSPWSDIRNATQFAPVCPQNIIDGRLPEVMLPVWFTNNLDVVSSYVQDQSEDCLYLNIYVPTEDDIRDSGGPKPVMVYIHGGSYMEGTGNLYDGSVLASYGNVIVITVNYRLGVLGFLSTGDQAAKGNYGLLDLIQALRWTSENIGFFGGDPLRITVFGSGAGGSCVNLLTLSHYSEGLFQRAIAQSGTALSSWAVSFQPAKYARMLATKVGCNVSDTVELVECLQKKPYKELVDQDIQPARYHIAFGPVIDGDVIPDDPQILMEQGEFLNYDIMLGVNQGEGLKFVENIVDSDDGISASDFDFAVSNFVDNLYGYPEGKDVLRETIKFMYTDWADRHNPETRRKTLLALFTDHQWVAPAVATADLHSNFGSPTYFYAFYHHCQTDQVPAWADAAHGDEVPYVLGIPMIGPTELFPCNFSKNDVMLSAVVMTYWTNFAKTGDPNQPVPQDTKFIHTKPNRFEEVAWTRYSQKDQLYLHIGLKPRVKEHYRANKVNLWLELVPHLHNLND

[2] = target: T2, human NL3(–A)_(ECTO) (Gln38-Asp636), immobilised for SPR (human, UniProt Q9NZ94-1 38-636, –A: nothing between Asp152 and Asp193, biotin on the Avitag (in vivo biotinylation by BirA))
[3] = target: T3, human NL5_(ECTO) (NL4(Y); Gln42-Glu602), immobilised for SPR (human, UniProt Q8NFZ3-1 42-602, biotin on the Avitag (in vivo biotinylation by BirA))
T3 chain: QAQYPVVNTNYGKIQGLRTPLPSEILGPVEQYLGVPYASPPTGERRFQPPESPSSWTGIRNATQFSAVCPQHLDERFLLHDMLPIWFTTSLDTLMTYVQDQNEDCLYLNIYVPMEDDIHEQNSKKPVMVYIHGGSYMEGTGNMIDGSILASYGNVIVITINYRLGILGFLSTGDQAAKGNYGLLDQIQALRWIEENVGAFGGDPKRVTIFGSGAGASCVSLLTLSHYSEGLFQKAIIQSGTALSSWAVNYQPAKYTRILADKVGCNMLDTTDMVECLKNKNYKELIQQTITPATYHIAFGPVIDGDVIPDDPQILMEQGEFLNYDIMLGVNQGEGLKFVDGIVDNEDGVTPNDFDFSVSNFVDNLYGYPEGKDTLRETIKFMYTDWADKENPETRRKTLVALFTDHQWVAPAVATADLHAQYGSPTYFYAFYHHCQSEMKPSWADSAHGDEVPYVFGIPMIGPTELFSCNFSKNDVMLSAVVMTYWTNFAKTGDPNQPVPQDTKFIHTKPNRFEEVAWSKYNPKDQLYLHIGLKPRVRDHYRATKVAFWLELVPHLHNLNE

[4] = target: human NL2(–A)_(ECTO) (Glu38-His612), immobilised for SPR (human, UniProt Q8NFZ4 38-612, –A: GPLTKKRDEATLNPPDT between Asp152 and Asp170 absent, biotin on the Avitag (in vivo biotinylation by BirA))
[5] = target: T2, human NL3(–A)_(ECTO) (Gln38-Asp636), …; remark: listed apart in the source
[6] = target: T4, human NL1(–A+B Asn300Gln)_(ECTO), immobilised for SPR (human, biotin on the Avitag (in vivo biotinylation by BirA))
T4 chain: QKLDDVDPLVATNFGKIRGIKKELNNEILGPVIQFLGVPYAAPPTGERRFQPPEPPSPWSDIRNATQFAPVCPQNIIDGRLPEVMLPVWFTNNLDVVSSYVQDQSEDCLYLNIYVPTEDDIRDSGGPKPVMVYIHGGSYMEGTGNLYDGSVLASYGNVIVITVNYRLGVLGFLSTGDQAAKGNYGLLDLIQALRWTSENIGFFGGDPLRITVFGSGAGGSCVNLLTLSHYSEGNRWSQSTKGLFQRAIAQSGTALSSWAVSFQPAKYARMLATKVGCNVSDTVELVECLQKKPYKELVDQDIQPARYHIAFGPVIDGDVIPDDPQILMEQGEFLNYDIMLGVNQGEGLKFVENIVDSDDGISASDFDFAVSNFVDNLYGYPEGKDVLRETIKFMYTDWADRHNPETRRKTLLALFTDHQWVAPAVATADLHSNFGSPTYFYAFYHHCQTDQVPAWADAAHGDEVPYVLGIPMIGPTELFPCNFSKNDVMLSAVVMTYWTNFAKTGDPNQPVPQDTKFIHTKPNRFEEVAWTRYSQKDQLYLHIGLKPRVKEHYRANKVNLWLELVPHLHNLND

T2 sequence (Q9NZ94 other isoform, or with tags, fused parts or gaps –A: nothing between Asp152 and Asp193): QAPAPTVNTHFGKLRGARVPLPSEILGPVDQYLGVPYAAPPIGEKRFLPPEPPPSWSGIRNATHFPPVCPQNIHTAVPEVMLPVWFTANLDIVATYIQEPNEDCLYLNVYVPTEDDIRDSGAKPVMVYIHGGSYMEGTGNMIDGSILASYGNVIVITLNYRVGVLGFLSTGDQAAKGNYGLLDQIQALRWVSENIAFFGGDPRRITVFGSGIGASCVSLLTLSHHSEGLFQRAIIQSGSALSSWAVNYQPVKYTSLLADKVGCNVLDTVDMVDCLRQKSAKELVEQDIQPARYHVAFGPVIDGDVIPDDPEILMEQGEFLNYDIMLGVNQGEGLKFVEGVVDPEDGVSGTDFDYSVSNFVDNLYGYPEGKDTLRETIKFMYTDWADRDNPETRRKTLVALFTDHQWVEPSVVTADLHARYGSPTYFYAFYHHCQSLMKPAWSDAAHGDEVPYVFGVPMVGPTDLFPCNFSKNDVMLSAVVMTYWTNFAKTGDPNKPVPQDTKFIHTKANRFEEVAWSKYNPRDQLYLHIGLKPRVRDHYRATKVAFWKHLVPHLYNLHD
Chain of human NL2(–A)_(ECTO) (Glu38-His612), immobilised for SPR (Q8NFZ4 other isoform, or with tags, fused parts or gaps with the stated changes): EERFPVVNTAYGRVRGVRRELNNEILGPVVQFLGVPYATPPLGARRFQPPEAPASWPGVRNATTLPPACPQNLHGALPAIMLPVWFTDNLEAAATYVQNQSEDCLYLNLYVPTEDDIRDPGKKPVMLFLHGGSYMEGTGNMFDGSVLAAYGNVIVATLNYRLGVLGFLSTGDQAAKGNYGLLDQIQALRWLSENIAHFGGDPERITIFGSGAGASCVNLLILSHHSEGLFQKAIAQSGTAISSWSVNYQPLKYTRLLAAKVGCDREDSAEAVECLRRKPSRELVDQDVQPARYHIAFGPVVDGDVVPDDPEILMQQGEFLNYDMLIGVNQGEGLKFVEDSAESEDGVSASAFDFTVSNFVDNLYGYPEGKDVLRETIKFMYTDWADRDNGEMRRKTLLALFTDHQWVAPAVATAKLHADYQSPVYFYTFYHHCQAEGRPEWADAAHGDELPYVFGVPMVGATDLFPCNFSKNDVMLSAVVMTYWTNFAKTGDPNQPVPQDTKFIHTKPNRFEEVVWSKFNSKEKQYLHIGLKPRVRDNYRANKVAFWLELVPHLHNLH

B1: human β-neurexin-1 LNS6 domain with SS4 (β-NRX1_(LNS6)(+4)) (domain or fragment)
chain: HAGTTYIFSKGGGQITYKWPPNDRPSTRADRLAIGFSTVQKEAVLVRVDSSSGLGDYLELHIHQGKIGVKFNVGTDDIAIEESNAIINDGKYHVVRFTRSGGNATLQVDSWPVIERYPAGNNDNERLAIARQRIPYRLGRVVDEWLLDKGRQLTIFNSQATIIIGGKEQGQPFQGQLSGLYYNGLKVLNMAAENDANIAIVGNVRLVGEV
Kd [1]: 2.63 µM
Kd [2]: 36.8 µM
Kd [3]: 14.2 µM
Kd [4]: 4 µM
Kd [5]: 22.1 µM
Kd [6]: 4.4 µM

B2: human MDGA1 extracellular domain (MDGA1_(ECTO); Gln19-Lys925) (domain or fragment)
chain: QGVYAPAQAQIVHAGQACVVKEDNISERVYTIREGDTLMLQCLVTGHPRPQVRWTKTAGSASDKFQETSVFNETLRIERIARTQGGRYYCKAENGVGVPAIKSIRVDVQYLDEPMLTVHQTVSDVRGNFYQEKTVFLRCTVNSNPPARFIWKRGSDTLSHSQDNGVDIYEPLYTQGETKVLKLKNLRPQDYASYTCQVSVRNVCGIPDKAITFRLTNTTAPPALKLSVNETLVVNPGENVTVQCLLTGGDPLPQLQWSHGPGPLPLGALAQGGTLSIPSVQARDSGYYNCTATNNVGNPAKKTVNLLVRSMKNATFQITPDVIKESENIQLGQDLKLSCHVDAVPQEKVTYQWFKNGKPARMSKRLLVTRNDPELPAVTSSLELIDLHFSDYGTYLCMASFPGAPVPDLSVEVNISSETVPPTISVPKGRAVVTVREGSPAELQCEVRGKPRPPVLWSRVDKEAALLPSGLPLEETPDGKLRLERVSRDMSGTYRCQTARYNGFNVRPREAQVQLNVQFPPEVEPSSQDVRQALGRPVLLRCSLLRGSPQRIASAVWRFKGQLLPPPPVVPAAAEAPDHAELRLDAVTRDSSGSYECSVSNDVGSAACLFQVSAKAYSPEFYFDTPNPTRSHKLSKNYSYVLQWTQREPDAVDPVLNYRLSIRQLNQHNAVVKAIPVRRVEKGQLLEYILTDLRVPHSYEVRLTPYTTFGAGDMASRIIHYTEPINSPNLSDNTCHFEDEKICGYTQDLTDNFDWTRQNALTQNPKRSPNTGPPTDISGTPEGYYMFIETSRPRELGDRARLVSPLYNASAKFYCVSFFYHMYGKHIGSLNLLVRSRNKGALDTHAWSLSGNKGNVWQQAHVPISPSGPFQIIFEGVRGPGYLGDIAIDDVTLKKGECPRKQTDPNK
Kd [1]: 3.62 µM
Kd [2]: 17.1 µM
Kd [3]: 23.2 µM
Kd [5]: 14.6 µM
Kd [6]: 7.22 µM

Stronger by Kd [1], values ahead:

Kd [1]: 0.64 µM
Kd [2]: 9.48 µM
Kd [3]: 3.16 µM
Kd [4]: 0.699 µM
Kd [6]: 1.09 µM
B3: human β-neurexin-1 LNS6 domain lacking SS4 (β-NRX1_(LNS6)(–4); His85-Val265) (domain or fragment)
chain: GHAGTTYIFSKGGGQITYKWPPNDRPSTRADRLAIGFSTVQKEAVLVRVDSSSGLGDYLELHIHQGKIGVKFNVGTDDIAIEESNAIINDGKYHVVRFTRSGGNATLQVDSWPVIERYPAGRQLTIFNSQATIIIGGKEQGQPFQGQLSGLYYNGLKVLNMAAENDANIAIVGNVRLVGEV

Kd [1]: 1.69 µM
Kd [2]: 24.9 µM
Kd [3]: 21.9 µM
Kd [4]: 0.768 µM
Kd [5]: 27.6 µM
Kd [6]: 4.03 µM
B4: human MDGA2 extracellular domain (MDGA2_(ECTO); Gln21-Lys927) (domain or fragment)
chain: QGVYAPPTVRIVHSGLACNIEEERYSERVYTIREGETLELTCLVTGHPRPQIRWTKTAGSASDRFQDSSVFNETLRITNIQRHQGGRYYCKAENGLGSPAIKSIRVDVYYLDDPVVTVHQSIGEAKEQFYYERTVFLRCVANSNPPVRYSWRRGQEVLLQGSDKGVEIYEPFFTQGETKILKLKNLRPQDYANYSCIASVRNVCNIPDKMVSFRLSNKTASPSIKLLVDDPIVVNPGEAITLVCVTTGGEPAPSLTWVRSFGTLPEKTVLNGGTLTIPAITSDDAGTYSCIANNNVGNPAKKSTNIIVRALKKGRFWITPDPYHKDDNIQIGREVKISCQVEAVPSEELTFSWFKNGRPLRSSERMVITQTDPDVSPGTTNLDIIDLKFTDFGTYTCVASLKGGGISDISIDVNISSSTVPPNLTVPQEKSPLVTREGDTIELQCQVTGKPKPIILWSRADKEVAMPDGSMQMESYDGTLRIVNVSREMSGMYRCQTSQYNGFNVKPREALVQLIVQYPPAVEPAFLEIRQGQDRSVTMSCRVLRAYPIRVLTYEWRLGNKLLRTGQFDSQEYTEYAVKSLSNENYGVYNCSIINEAGAGRCSFLVTGKAYAPEFYYDTYNPVWQNRHRVYSYSLQWTQMNPDAVDRIVAYRLGIRQAGQQRWWEQEIKINGNIQKGELITYNLTELIKPEAYEVRLTPLTKFGEGDSTIRVIKYSAPVNPHLREFHCGFEDGNICLFTQDDTDNFDWTKQSTATRNTKYTPNTGPNADRSGSKEGFYMYIETSRPRLEGEKARLLSPVFSIAPKNPYGPTNTAYCFSFFYHMYGQHIGVLNVYLRLKGQTTIENPLWSSSGNKGQRWNEAHVNIYPITSFQLIFEGIRGPGIEGDIAIDDVSIAEGECAKQDLATK
